Paper PMC8657308
Like-named read-outs stand apart in the source and are kept apart here.

Experiments:
[1] = target: PahZ2_(KT-1), poly(aspartic acid) hydrolase-2 of Sphingomonas sp. KT-1 (Sphingomonas sp. KT-1); assay: SEC
[2] = target: PahZ2_(KT-1), poly(aspartic acid) hydrolase-2 of Sphingomonas sp. KT-1 (Sphingomonas sp. KT-1); assay: SEC; remark: listed apart in the source

- stoichiometry N [1]: 1.94
- stoichiometry N [2]: 2.4
Substance: PahZ2_(KT-1), poly(aspartic acid) hydrolase-2 of Sphingomonas sp. KT-1 (enzyme)
